Assay results from a protein production outcome set (Wang et al. 2014).

assay: label from the status in PepcDB records
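Further: failed if final PepcDB status was selected cloned or expressed and not failed if soluble or beyond.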

Protein production, not failed:
MHSTPKRVLLAGATGLTGEHLLDRILSEPTLAKVIAPARKALAEHPRLDNPVGPLAELLPQLDGSIDTAFCCLGTTIKEAGSEEAFRAVDFDLPLAVGKRALEMGARHYLVVSALGADAKSSIFYNRVKGELEQALQEQGWPQLTIARPSLLFGPREEFRLAEILAAPIARILPGKYHGIEACDLARALWRLALEEGKGVRFVESDELRKLGK
MHSVHPTPKFSIITVTYNAEKVLEDTIQSVISQTYHHVEYIIVDGASKDGTLSIIDRYRPRITTVVSEPDKGLYDAMNKAISLASGDYLCFLNAGDCFHEDDTLQQMVHSIHGSVLPDVIYGETAIVDKDRHFLHMRRLSAPEKLDWKSFKQGMLVCHQAFFARHTLVEPYDLSYRYSADFDWCIRIMKKAYTLHNTHLTIIDYLDEGMTTQNRKASLKERFRIMAKHYGWISTAAHHAWFVLRLIIKPGQLEHHHHHH
MHYSYLEPGLHAELAAITPDEAVAHLRNHLGNLLLDPAVTAAYINRLGVLTPEETTPSTRAWLTYLLVRYCDLLPLDLAAQRILAQVTGNAAPHLRDLERCAIPDPIERKLERLGAGEDSERNRAMLLALLHEYPYSPAIMERLMTVELALDIPVGGEWLPSVRPPAGLLRPLHERLFIHAMMQGDTERALQHAAACVPDNPSPHLLNHLAELHARLGDTQQALNLYGASLEADPLQHPVRLRMEALAKPPRAHADALHHRIAICLYSFNKAELLERTLSSLAASQTGEAHILVLLNGCTDDSATRVAAVNERLFNGRLEVIDMPINIGAPAARNWLLAKQTVREADFVAFLDDDVDVPAAWLPRLVGNLEEHPGAGVAGTRVRNPGDVPRLQYLYRNISVARPGLIRLSLDTPTLHHDTGFYDFTRSTTSVMGCCHVFTRRALDEVPAFDLRFSPSQMDDIAHDIDLALAGFDVLYTGDVVCVHHQMSGLGRANATDWKRFGNVAGNDVKFYYRFADRLDALGRLNNLGFMPDMPPALEHHHHHH

Protein production, failed:
MHPKTQQILEVFEEINKIPRRSKHEEQISTWLQEWGRSRGFEVKADSLNNVLIKVPATTGYEDSPTLILQGHMDMVCEKCKDSIHDFSRDPIRCICDGDWMRGDGTSIGADDGIALALGLVMAEAGKKGEIGHPPLELLFTVDEETGLTGARGLETGFFEGKILLNLDSEDEGIFVIGCAGGQNSQITLPVEWELLDFKEENLFRFFRLSVEGLEGGHSGTEINKQRANGIQLLSLALVKLRGKLGIENVRLVLLNGGTVHNAIPSTAEAFIALHGEKLEKAAETMSDIRHAFKAEYAKTDPGLILNFEEISREIIFEVAEDKIPREEVSHVRVFSLETEEKLLELILGLPHGVYRMSETIHGLVETSNNLATVRTAGNEVIIVSSQRSSNNLRLAEISGKVEAISKLAGAWVEHEPGYPAWEPNLKSELILKCKQVYTETFGKEPEIEVIHAGLECGIIGSAHEGMEMISFGPTIKDAHSPAEKIFVPSIEKVWIFLENLFKTYC
MHPVLIFLFALIAILLFTAKFRLHPFLSLVLVSLLTGILAGEPIRTIEAVTEGLGSVFSRFAIIITSGSIIGLLLQKTGGMSLIASDITRFFKNPLLALSFLGFLFSVPTMCYILAYVIFIPIAKELSSRFNYPPISTATALALGAVASFNLVYPSPVIISAAEELSANRDMLILLGFLTAVPTSFSGYLYARSLGKAEVSGMNEGGVIREKTIVKEKKDLSQENGALQRTENRKPGRFEAYAPIFIPLFLILFEAVLNNPNTLFTFLGNPNVALLIGVLLSIFSGRVLGLPMIRVQVEKAIKRSGVVLLDLCGGGALGATLAMTGAGEALGKFFLQFNLPHILVPFLVAAALQTVQGSRVVTMLVAPSLLLPLVPELGLPPEILILSMASGTFMISHVNDPFFWIFGELAELTPSEVFRSNTLGNALMGVVSFLIVSGIYFFFY
MHRLRAAETGDIEAMTDLLLRHGPNPWNHLPEEGVRAHLRAIADGEVRAVLAERDDRLLGFASFRRTEDFAHYQPQRADAPRAYICEAVVHPAAAGQGLGSALLEAVLAQLADEGIEDVYIDRHEENLASAGMMRKAGFVELETYADPARRPNGSGRSTVCHRNLSLQRRAVR
MHRSIRFTFDDRVPRYWHAGRAHTTRFFDCLSFMFPQGEKIFIESVVHFRHKLDKDSALDKAVDDFIYQEASHMREHRAYNQRLCAQGAPVETLERMLLRRRKESARLPASFRLALTASLEHITAILSDQLLRNPAYLKNADPTMAGLWRWHALEEIEHKAVAYDVLCTVERNPLWRYLLRCVAMLSLSVYFTFDLGYFTYHLVRGDKQHRNWREWLRLQWWLFVNPGLLSRIVPAGLFWFVPGFHPNRIDTRALLDTARQALDEQR
MHSLYLGVVKVMAKIILVYANCVNSTAKGDFALAGQIAKDLVREKTSDDIDVVLTSTLDGIARFESLYGKAVDGRVIIEGTSVGLCALELFESVDNEVVAFIEANRCKYAPSDILKRVLSPDSKFLFIGAANQKAIATGDKFTKSWLYISHKGDQPNVYEHFDEDDSLIQSVGLGDDRLGLPSLPKVDELPEMNSTQSQKIPSGEYGFMYLAAVHGIDDVYLMNQYMSLTEMGQYVLVGEYAKQSKEVQMVLHSLQYKGSSVSLTMPQIFFHDSVDNCLMRNMVSKSSGPLVVSTGVMSSIEAMQDGKLTYYQTMSNNTQFVASYLIAVKSICSSDTTLFGSMPKLIIDLSNLLFAEKPLKESQMKEIKSLLGMSSVTSRLGEMNKRIIAKANGTVAGELLSFIGKPKTTQSHKQCISVCMSLRKSGETTSPIFDQALRRAAAWGRLFELKVLIASMSTSDLNKKDKTGNQYTALHWAVMQGHLDCARLLVKSGASVDIQDKSGKSPLHYAIKRGDKETIKLLVQAGASLEIMDDSGAKPCDGSESWVPEYIKSCYEKSGHKSSSLF
MHTEQALHTRIADIVESIILKKVTPDTALISSGLVDSLAAVDITLAVESEYGCSIPAPEIAEHLQSVRTLAGYVAANSQ
MHTTSGRWGYGLFLALLTALLWGILPIKLKQVLQVVDPITVTWYRLLVSGGLLFAWLAAQRRLPSMRKLAPRGKGLVLVAVLGLMGNYVLYLIGLKLLSPGTAQLVVQIGPVLLLVASVFVFRERFSVGQGMGLLVLLAGFGLFFNQRLEELLTSLGTYTTGVLTILLATSIWVFYALSQKQLLTVWHSQQVMMVIYLSCAALLTPWVHPLEALQLTPVQGWLLLACCLNTLVAYGAFAEALAHWEASRVSATLALTPLVTFVAVALAAWVWPEYVHAEDINALGYVGAVTVVFGSALVALGPSLVTSWRARRERGQRAYSSEG
MHVQEWLETVPAVSIYALVGLVIGLESLGIPLPGEIVLISAALLSSQHGGINPVILGICATVGAVVGDSIGYAIGRKGGRPLLAWLGNKFPRHFGEGHIATAERSFEKWGMWAVFFGRFVALLRIFAGPLAGVLRMPYWKFLIANVLGGIIWAGGTTAVIYYVGVVAESWLKRFSYLGLVAAVLIGLASMLVIKRKAKKAAAEREAAEPETVPAAD
MHYRWTLLTLAASLLCVPSASGLAEFGIEGMGVVSTPANEARATLSPDGQRIVWASDRTGGTGGWDLWQAQLRGGRWQDAQPLPINTAQDETTPLFSADGRWLLFASTRPGGAGGSDLYRAPVDAQGAVGPVQSLGAAIDSAGNERAPTLSLDGTRLLFASDGHGGAGGMDLFVAHWDGQAFTAPVALVDINSAADELDAAWLGDGRALVWARGKTDDPSQLLLAICKDGHFVQGSPLPLSFNGPQERTFGAVVDTAKPGELLVTGSARAPRAGQLDIYRMKAPAADGDASCR
MIAAPFLGLLLGLAALLLLASPWPFLAPLVVVGLFGLALLYRRPGWGLLGICALVPFEGLFKDSAFSGAKLLGASLILIMLFKLLLRQIPDSRLRSNLWRALGPFLLCLLLSMLYSENLLVSLDSLRELAVGLVLFFVTLLIAREVNLLMLCRLLAVSVAITCVIALVSAKYQVGGRAIGLLQDANYFALLIAMAVPPAIFLALRSPHWPVRLFWVGISLTLMAGMTKTDSRSGLLVVLFTIAIGVWHYRDRLKGLRPKHLGFAMFAVAIVIPLGIAVLPAEYVARIQSLSMLKSGAHSADTSLGRRTSYLVVGGQMIRQNPLLGSGLGTFPIHYAQTGFASSFSENMNEPDLFRRAHNTYLELFSELGIPGGLSFVALMLMGLRNFERARQGFLARGQREQADIATHLGLSLLAMAVFLLFLSAPNHKYLWIFLALSSVLRLQAEDAPVPRPAPA
MIALPAWLTDERLSEDIEPLLRQTDNESLERLAAEAQAVTLRRFGRVISLYTPLYLSNFCSSGCVYCGFASDRRSPRRKLDTDEIEKELLAMKALGVSDVLLLTGERTNSVGFDYLRRAVDIAARHMPRVAVEAFPMSVAEYRGLAECGCTGLTIYQETYDPDHYRELHRWGPKQDFLERLETPERAITGGIRSVGIGALLGLSEPVGEALAVLRHARYLCKTYWKAGVTVSFPRIRPQEGGFQPSFTVSDRFLARMIFAFRIGMPDVDLVLSTRESSNFRDGMAGLGITRMSIASRTTVGGYVEKETAGASQFEVSDNRSVEAFCAALRAKDLEPVFKNWDAAYNNPLPAEECT
MIAMVNDGGLALDRPTAAAIVGLFAGSMYLMTVFGGWVADNWLGQARAIWYGSIIIALGHLSIALTSVFDQSFFYLGLVLIVLGTGLFKTCISVIVGTLYKANDARRDAGFSIFYMGINMGSFIAPLITGLLAKDHGWHLGFGIGGIGMLIALLIFRFMAMPQLQTFNELRQEANSCSKPVVENKNAPKIVFSFLFAVAVVIALTFLGIIHINPVAVATYLTVGISIGIIAYFAYLLLFLNLEQHEKFKIIICFVLLAASALFWSAFEQKPTTFTLFAQDYTDRIVFGFEIPTVWFESINALFIIIFAPVAAWLWAKLGKANKDPSYISKFIIALLFAAGGFLLMSLASHFAIHGGVVSPFWLVGTLFLLTIGELCLSPIGLSTMTKLAPDVIRSQIMGLWFTGTALGNLMAGLIGGQVSADGINHLPSLFMRCVLALVIGAIVLFLLKKPMNKLMDKSTNKVQPDLETI
MIANNIIPIIFLLIIVYGMFKGRKVYEWFLEGAKEGLMVCVKIFPALLAMMIAIRIFKDANLLNYLNNLLEPIVSLIGLPKDIVPLVLIKPLSGSGALGVYTELINTLGPDTREGLISSVIMGGTETIFYTITVYFGAVGIKKIRHTFWAALMADITAIIMAVLVVSMFFGL
MIARPMVPTADQLATDDLSLSDRSRFWLAALEASGQGVAIADATHPDLILTYVNSAFKKLTGYNAAEALGKSCRFLQGSDRAQPGITTLRQAIRNGQACEVVLRNYRKDGSLFWNQLTIAPITDGQGKVSHYVALQRDITAFKEQEQALQRQGIYDEHSGLPKRQLFLDRLNQALAWSQFSGVPGALLLIDLGLPAHLDGSPSLSPDAEENLEIIANRLQAYVRPHETLAHLNHHQFGLLLLDPDVQLRAEERAHGIQTLIRDRLAGFEGGAHIGIVPLTPETPATVLLQAAEAAAMTARSQQQGHLSLEASAIVAAPEQYSRDRDWQQAIAAGELTLALQPQMGLRNRQLRGFEVQLRWQHPQQGTLLASQLMEHLEQSQHRETVGRWFLDQAGQLLSQWRNSAQFSGLFALSLLPQQWKSPSFIHDLRSLLETYQIPPEQLELDLPAQSLAESAAESWDWVYAVRDLGIGIGLADFGSRSIGLYDLRNLPLTTLKLERRFVRGLPDDANDRAIVRGVVAMSQALKVRIVARGVDTVDQAKFLARAECDAMQGLAYSAPLTIEEALQVARSPQAPAW
MICCLGPRGSYSEKAAVTFSKAINDSEIQFEDSIYNVFKAVETNPEFFGVVPSENSIGGSVSITQDLLLEFPVKILGEVDISINHCLLGYDIKKVTEVLAHPQALAQCGHYITKNNWNITPVDSNAKAAKIVSEEKDEKLAAICGVENAEIYGLNVLDEYIQDFKNNTTRFFLICNKNK
